Results reported in the supplement of paper PMC11246515.
± gives the standard deviation of the averaged measurements.

Test: total protein half-life in vivo (active degradation + dilution); higher = more stable protein
[1] = E. coli NCM3722 delta-hslV, growth: N-lim chemostat, doubling time 6 h
[2] = E. coli NCM3722 delta-smpB, growth: N-lim chemostat, doubling time 6 h
[3] = wild type E. coli NCM3722, growth: C-lim chemostat, doubling time 3 h
[4] = wild type E. coli NCM3722, growth: C-lim chemostat, doubling time 6 h
[5] = wild type E. coli NCM3722, growth: C-lim chemostat, doubling time 12 h
[6] = wild type E. coli NCM3722, growth: N-lim chemostat, doubling time 6 h
[7] = wild type E. coli NCM3722, growth: N-lim chemostat, doubling time 12 h
[8] = wild type E. coli NCM3722, growth: P-lim chemostat, doubling time 6 h
[9] = wild type E. coli NCM3722, growth: P-lim chemostat, doubling time 12 h
[10] = E. coli NCM3722 delta-clpP delta-lon delta-hslV, growth: N-lim chemostat, doubling time 6 h
[11] = E. coli NCM3722 delta-clpP, growth: N-lim chemostat, doubling time 6 h
[12] = E. coli NCM3722 delta-lon, growth: N-lim chemostat, doubling time 6 h

| Sequence | total protein half-life in vivo [1] [h] | total protein half-life in vivo [2] [h] | total protein half-life in vivo [3] [h] | total protein half-life in vivo [4] [h] | total protein half-life in vivo [5] [h] | total protein half-life in vivo [6] [h] | total protein half-life in vivo [7] [h] | total protein half-life in vivo [8] [h] | total protein half-life in vivo [9] [h] | total protein half-life in vivo [10] [h] | total protein half-life in vivo [11] [h] | total protein half-life in vivo [12] [h] |
| --- | --- | --- | --- | --- | --- | --- | --- | --- | --- | --- | --- | --- |
| MRHLRNIFNLGIKELRSLLGDKAMLTLIVFSFTVSVYSSATVTPGSLNLAPIAIADMDQSQLSNRIVNSFYRPWFLPPEMITADEMDAGLDAGRYTFAINIPPNFQRDVLAGRQPDIQVNVDATRMSQAFTGNGYIQNIINGEVNSFVARYRDNSEPLVSLETRMRFNPNLDPAWFGGVMAIINNITMLAIVLTGSALIREREHGTVEHLLVMPITPFEIMMAKIWSMGLVVLVVSGLSLVLMVKGVLGVPIEGSIPLFMLGVALSLFATTSIGIFMGTIARSMPQLGLLVILVLLPLQMLSGGSTPRESMPQMVQDIMLTMPTTHFVSLAQAILYRGAGFEIVWPQFLTLMAIGGAFFTIALLRFRKTIGTMA [P0AGH1] | 7.18 ± 0.3 | 6.13 ± 0.76 | 3.9 | 7.01 | 12.2 | 5.76 ± 0.3 | 10.5 | 7.25 ± 0.75 | 11.7 ± 0.4 |  |  |  |
| MRHPLVMGNWKLNGSRHMVHELVSNLRKELAGVAGCAVAIAPPEMYIDMAKREAEGSHIMLGAQNVDLNLSGAFTGETSAAMLKDIGAQYIIIGHSERRTYHKESDELIAKKFAVLKEQGLTPVLCIGETEAENEAGKTEEVCARQIDAVLKTQGAAAFEGAVIAYEPVWAIGTGKSATPAQAQAVHKFIRDHIAKVDANIAEQVIIQYGGSVNASNAAELFAQPDIDGALVGGASLKADAFAVIVKAAEAAKQA [P0A858] | 4.718 ± 0.03 | 4.59 ± 0.26 | 3.057 ± 0.024 | 5.92 ± 0.066 | 10.6 ± 0.24 | 4.75 ± 0.24 | 8.33 ± 0.46 | 5.79 ± 0.17 | 13.1 ± 0.81 | 5.91 ± 0.91 | 5.22 ± 0.98 | 5.61 ± 0.81 |
| MRICSDQPCIVLLTEKDVWIRVNGKEPISLKANHMALLNCENNIIDVSSLNNTLVAHISHDIIKDYLRFLNKDLSQIPVWQRSATPILTLPCLTPDVFRVAAQHSMMPAETESEKERTRALLFTVLSRFLDSKKFVSLMMYMLRNCVSDSVYQIIESDIHKDWNLSMVASCLCLSPSLLKKKLKSENTSYSQIITTCRMRYAVNELMMDGKNISQVSQSCGYNSTSYFISVFKDFYGMTPLHYVSQHRERTVA |  | 1.24 |  |  |  |  |  |  |  |  |  |  |
| MRIGHGFDVHAFGGEGPIIIGGVRIPYEKGLLAHSDGDVALHALTDALLGAAALGDIGKLFPDTDPAFKGADSRELLREAWRRIQAKGYTLGNVDVTIIAQAPKMLPHIPQMRVFIAEDLGCHMDDVNVKATTTEKLGFTGRGEGIACEAVALLIKATK | 4.88 ± 0.23 | 4.88 ± 0.38 | 2.872 ± 0.01 | 6.85 ± 1.3 | 10.7 | 4.9 ± 0.24 | 8.67 ± 0.53 | 5.806 ± 0.032 | 12.9 ± 0.45 | 5.75 ± 0.23 | 4.63 ± 0.57 | 5 ± 0.85 |
| MRIGIDLGGTKTEVIALGDAGEQLYRHRLPTPRDDYRQTIETIATLVDMAEQATGQRGTVGMGIPGSISPYTGVVKNANSTWLNGQPFDKDLSARLQREVRLANDANCLAVSEAVDGAAAGAQTVFAVIIGTGCGAGVAFNGRAHIGGNGTAGEWGHNPLPWMDEDELRYREEVPCYCGKQGCIETFISGTGFAMDYRRLSGHALKGSEIIRLVEESDPVAELALRRYELRLAKSLAHVVNILDPDVIVLGGGMSNVDRLYQTVGQLIKQFVFGGECETPVRKAKHGDSSGVRGAAWLWPQE | 6.33 ± 1.9 | 5.3 ± 0.66 | 2.8 ± 0.4 | 5.8 ± 0.29 | 11.8 ± 2.8 | 5.18 ± 0.18 | 9.94 ± 4 | 6.21 ± 0.56 | 11.7 ± 0.5 | 5.21 ± 0.15 | 5.38 ± 0.09 | 5.67 ± 0.31 |
| MRIGIPRERLTNETRVAATPKTVEQLLKLGFTVAVESGAGQLASFDDKAFVQAGAEIVEGNSVWQSEIILKVNAPLDDEIALLNPGTTLVSFIWPAQNPELMQKLAERNVTVMAMDSVPRISRAQSLDALSSMANIAGYRAIVEAAHEFGRFFTGQITAAGKVPPAKVMVIGAGVAGLAAIGAANSLGAIVRAFDTRPEVKEQVQSMGAEFLELDFKEEAGSGDGYAKVMSDAFIKAEMELFAAQAKEVDIIVTTALIPGKPAPKLITREMVDSMKAGSVIVDLAAQNGGNCEYTVPGEIFTTENGVKVIGYTDLPGRLPTQSSQLYGTNLVNLLKLLCKEKDGNITVDFDDVVIRGVTVIRAGEITWPAPPIQVSAQPQAAQKAAPEVKTEEKCTCSPWRKYALMALAIILFGWMASVAPKEFLGHFTVFALACVVGYYVVWNVSHALHTPLMSVTNAISGIIVVGALLQIGQGGWVSFLSFIAVLIASINIFGGFTVTQRMLKMFRKN | 6.66 ± 0.067 | 6.01 ± 0.82 |  |  | 14.5 ± 0.55 | 6.23 ± 0.47 | 12.6 ± 0.42 | 6.73 ± 0.34 | 11.6 ± 1.5 | 6.21 ± 0.11 | 6.81 ± 0.17 | 6.58 ± 0.37 |
| MRIGMRLLLGYFLLVAVAAWFVLAIFVKEVKPGVRRATEGTLIDTATLLAELARPDLLSGDPTHGQLAQAFNQLQHRPFRANIGGINKVRNEYHVYMTDAQGKVLFDSANKAVGQDYSRWNDVWLTLRGQYGARSTLQNPADPESSVMYVAAPIMDGSRLIGVLSVGKPNAAMAPVIKRSERRILWASAILLGIALVIGAGMVWWINRSIARLTRYADSVTDNKPVPLPDLGSSELRKLAQALESMRVKLEGKNYIEQYVYALTHELKSPLAAIRGAAEILREGPPPEVVARFTDNILTQNARMQALVETLLRQARLENRQEVVLTAVDVAALFRRVSEARTVQLAEKKITLHVTPTEVNVAAEPALLEQALGNLLDNAIDFTPESGCITLSAEVDQEHVTLKVLDTGSGIPDYALSRIFERFYSLPRANGQKSSGLGLAFVSEVARLFNGEVTLRNVQEGGVLASLRLHRHFT | 6.18 ± 0.49 | 5.49 ± 0.91 | 3.16 ± 0.14 | 6.54 ± 1.2 | 9.95 ± 2.1 | 5.81 ± 0.57 | 12.1 ± 0.34 | 6.86 ± 0.85 | 12.8 ± 1.8 | 6.22 ± 0.68 | 7.24 ± 0.64 | 5.7 ± 0.74 |
| MRIHILGICGTFMGGLAMLARQLGHEVTGSDANVYPPMSTLLEKQGIELIQGYDASQLEPQPDLVIIGNAMTRGNPCVEAVLEKNIPYMSGPQWLHDFVLRDRWVLAVAGTHGKTTTAGMATWILEQCGYKPGFVIGGVPGNFEVSAHLGESDFFVIEADEYDCAFFDKRSKFVHYCPRTLILNNLEFDHADIFDDLKAIQKQFHHLVRIVPGQGRIIWPENDINLKQTMAMGCWSEQELVGEQGHWQAKKLTTDASEWEVLLDGEKVGEVKWSLVGEHNMHNGLMAIAAARHVGVAPADAANALGSFINARRRLELRGEANGVTVYDDFAHHPTAILATLAALRGKVGGTARIIAVLEPRSNTMKMGICKDDLAPSLGRADEVFLLQPAHIPWQVAEVAEACVQPAHWSGDVDTLADMVVKTAQPGDHILVMSNGGFGGIHQKLLDGLAKKAEAAQ | 5.14 ± 0.089 | 5.26 ± 0.38 | 2.84 ± 0.21 |  | 12.236 ± 0.0033 | 5.58 ± 0.38 | 9.82 ± 1.3 | 5.99 ± 0.1 | 12.4 ± 0.71 | 5.233 ± 0.034 |  | 6.73 ± 0.28 |
| MRIHSPYPASWALAQRIGYLYSEGEIIYLADTPFERLLDIQRQVGQCQTMTSLSQADFEARLEAVFHQNTGESQQIAQDIDQSVDLLSLSEEMPANEDLLNEDSAAPVIRLINAILSEAIKETASDIHIETYEKTMSIRFRIDGVLRTILQPNKKLAALLISRIKVMARLDIAEKRIPQDGRISLRIGRRNIDVRVSTLPSIYGERAVLRLLDKNSLQLSLNNLGMTAADKQDLENLIQLPHGIILVTGPTGSGKSTTLYAILSALNTPGRNILTVEDPVEYELEGIGQTQVNTRVDMSFARGLRAILRQDPDVVMVGEIRDTETAQIAVQASLTGHLVLSTLHTNSASGAVTRLRDMGVESFLLSSSLAGIIAQRLVRRLCPQCRQFTPVSPQQAQMFKYHQLAVTTIGTPVGCPHCHQSGYQGRMAIHEMMVVTPELRAAIHENVDEQALERLVRQQHKALIKNGLQKVISGDTSWDEVMRVASATLESEA |  |  |  |  |  |  |  |  |  | 6.61 |  |  |
| MRIIDNLEQFRQIYASGKKWQRCVEAIENIDNIQPGVAHSIGDSLTYRVETDSATDALFTGHRRYFEVHYYLQGQQKIEYAPKETLQVVEYYRDETDREYLKGCGETVEVHEGQIVICDIHEAYRFICNNAVKKVVLKVTIEDGYFHNK [P0AC73] |  |  | 2.92 ± 0.37 | 6.04 ± 0.63 | 9.85 |  |  |  |  |  |  |  |
| MRILLIEDDMLIGDGIKTGLSKMGFSVDWFTQGRQGKEALYSAPYDAVILDLTLPGMDGRDILREWREKGQREPVLILTARDALAERVEGLRLGADDYLCKPFALIEVAARLEALMRRTNGQASNELRHGNVMLDPGKRIATLAGEPLTLKPKEFALLELLMRNAGRVLSRKLIEEKLYTWDEEVTSNAVEVHVHHLRRKLGSDFIRTVHGIGYTLGEK | 4.1 ± 0.33 | 4.06 ± 0.37 | 2.92 ± 0.042 | 5.51 ± 0.24 | 10.8 ± 1.9 | 4.2 ± 0.12 | 6.35 ± 0.32 | 5.267 ± 0.0074 | 11 ± 0.5 | 4.652 ± 0.039 | 4.22 ± 0.3 | 4.5 ± 0.27 |
| MRILLSNDDGVHAPGIQTLAKALREFADVQVVAPDRNRSGASNSLTLESSLRTFTFENGDIAVQMGTPTDCVYLGVNALMRPRPDIVVSGINAGPNLGDDVIYSGTVAAAMEGRHLGFPALAVSLDGHKHYDTAAAVTCSILRALCKEPLRTGRILNINVPDLPLDQIKGIRVTRCGTRHPADQVIPQQDPRGNTLYWIGPPGGKCDAGPGTDFAAVDEGYVSITPLHVDLTAHSAQDVVSDWLNSVGVGTQW [P0A840] | 4.1 ± 0.25 | 3.71 ± 0.83 | 3.04 ± 0.33 | 6.21 ± 0.81 | 8.36 ± 0.48 | 4.5 | 5.84 ± 1.5 |  |  | 4.833 ± 0.047 | 4.03 |  |
